1 molecule from patent publication CN111349168A (DONGGUAN PENGZHI BIOTECHNOLOGY CO LTD, dated 2020) can be followed below.

The target of this experiment is T1, CKMB(PAJ18) (human, UniProt P06732 1-381; P12277 1-381).
T1 construct: Antigen reagent named only as CKMB(PAJ18); Its source and construct are not described; also called 杂化型肌酸激酶同工酶; CKMB抗原
The experiment can be described thus: biolayer interferometry, antibody captured on AMC sensor, CKMB in solution. A general note: Biolayer interferometry detects binding as a change in optical thickness at a sensor tip.

T1 sequence (P06732 whole entry, chain 1 of 2): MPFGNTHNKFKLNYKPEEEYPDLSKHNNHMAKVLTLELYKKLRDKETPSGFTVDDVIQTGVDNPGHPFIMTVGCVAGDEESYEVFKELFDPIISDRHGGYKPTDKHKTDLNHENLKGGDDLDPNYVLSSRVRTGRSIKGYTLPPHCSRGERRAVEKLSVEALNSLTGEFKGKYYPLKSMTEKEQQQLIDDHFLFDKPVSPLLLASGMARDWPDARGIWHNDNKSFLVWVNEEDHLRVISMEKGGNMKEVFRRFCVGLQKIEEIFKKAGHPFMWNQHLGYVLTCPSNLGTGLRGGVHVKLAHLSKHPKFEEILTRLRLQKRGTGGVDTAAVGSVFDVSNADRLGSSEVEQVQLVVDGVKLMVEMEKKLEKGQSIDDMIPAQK
T1 sequence (P12277 whole entry, chain 2 of 2): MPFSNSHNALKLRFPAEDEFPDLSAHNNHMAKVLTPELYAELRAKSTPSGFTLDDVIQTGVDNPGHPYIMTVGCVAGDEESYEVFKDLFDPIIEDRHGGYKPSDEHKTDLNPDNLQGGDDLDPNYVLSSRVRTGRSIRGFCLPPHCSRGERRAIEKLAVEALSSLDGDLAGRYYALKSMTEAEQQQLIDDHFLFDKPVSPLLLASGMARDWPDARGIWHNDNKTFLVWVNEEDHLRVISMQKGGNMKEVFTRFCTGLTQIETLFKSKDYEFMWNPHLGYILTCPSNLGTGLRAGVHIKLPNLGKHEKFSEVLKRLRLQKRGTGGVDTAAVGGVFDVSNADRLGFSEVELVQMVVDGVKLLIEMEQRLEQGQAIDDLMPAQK

B1: Anti-CKMB 10C5 recombinant antibody (WT) (antibody, V domains shown)
VH: DVQLQESGPGLVKPSQTMSLTCTVTGVSITTGTDRWSWIRQFPGNKLEWIGYIFYSGTLTYNPSVTSRTTITRDTSKNQFFLEMNSLTAEDTATYYCARERTYYPYGYFDVFGTGTTVTVSS
VL: DIQMNQSPSSLSASLGDTITITCHGSNNINIWLSWYQQKPGNTPKLLIYKGSDIHTGVSSRFSGSGSGTAFTLTISSLQPEDIATYYCQQAQSYAWTWGGGTKLEIK
Take B1: binding was characterised by a dissociation constant (Kd) of 77.6 nM, the koff turned out to be 0.00512 s⁻¹ and the kon was 66000 M⁻¹ s⁻¹.

The Kd is a measure of binding affinity in units of concentration. The koff is the rate constant with which the complex falls apart. A high value points to a short-lived complex. One may read the kon as the rate constant with which the complex forms. A low value points to slow association.
